We go through eight compounds from patent US10456439B2, “NK3 agonist for use in the treatment of a patient suffering from atrial arrhythmia or fibrillation” (priority 2014, dated 2019).

The test system of one experiment is rabbit atrial myocytes. Description: Action potential recording (perforated patch clamp) in rabbit atrial myocytes. The following applies: increasing concentrations, result in words.
A further experiment addresses NK-1 receptor (Homo sapiens, UniProt P25103). The following applies: cited from earlier work.
In experiment [1] the target is T1, NK-3 receptor (Homo sapiens, UniProt P29371).
T1 sequence (P29371 1-465): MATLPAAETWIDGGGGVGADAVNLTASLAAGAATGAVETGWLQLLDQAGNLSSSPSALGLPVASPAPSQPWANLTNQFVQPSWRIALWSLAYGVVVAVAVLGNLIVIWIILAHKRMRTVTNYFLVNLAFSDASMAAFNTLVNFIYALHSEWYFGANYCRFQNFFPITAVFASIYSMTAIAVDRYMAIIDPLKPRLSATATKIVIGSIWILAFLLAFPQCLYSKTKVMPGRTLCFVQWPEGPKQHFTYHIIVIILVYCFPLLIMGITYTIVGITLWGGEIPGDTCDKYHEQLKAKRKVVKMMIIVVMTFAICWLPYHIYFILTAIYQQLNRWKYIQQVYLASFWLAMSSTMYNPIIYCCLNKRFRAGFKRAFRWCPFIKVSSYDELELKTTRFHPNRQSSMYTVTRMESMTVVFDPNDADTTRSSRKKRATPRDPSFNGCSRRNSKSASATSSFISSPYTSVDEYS
The following applies: cited from earlier work.

Another experiment deals with T2, NK2-receptor (Homo sapiens, UniProt P21452).
T2 sequence (P21452 1-398): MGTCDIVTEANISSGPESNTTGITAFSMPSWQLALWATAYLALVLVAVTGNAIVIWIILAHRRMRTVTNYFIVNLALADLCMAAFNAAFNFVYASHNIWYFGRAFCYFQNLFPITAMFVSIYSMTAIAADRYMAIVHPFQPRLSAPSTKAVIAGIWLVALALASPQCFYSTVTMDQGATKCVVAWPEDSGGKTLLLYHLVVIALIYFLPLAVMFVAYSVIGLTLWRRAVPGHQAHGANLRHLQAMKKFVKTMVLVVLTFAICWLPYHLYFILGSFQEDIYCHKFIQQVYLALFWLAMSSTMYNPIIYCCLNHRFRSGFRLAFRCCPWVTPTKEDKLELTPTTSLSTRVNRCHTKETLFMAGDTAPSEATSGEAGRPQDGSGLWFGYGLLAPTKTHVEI
The following applies: cited from earlier work.

For experiment [2], the target named is T3, Murine NK3 receptor (Mus musculus, UniProt P47937).
T3 construct: expressed in transfected cells; host or cells: HEK 293
T3 sequence (P47937 1-452): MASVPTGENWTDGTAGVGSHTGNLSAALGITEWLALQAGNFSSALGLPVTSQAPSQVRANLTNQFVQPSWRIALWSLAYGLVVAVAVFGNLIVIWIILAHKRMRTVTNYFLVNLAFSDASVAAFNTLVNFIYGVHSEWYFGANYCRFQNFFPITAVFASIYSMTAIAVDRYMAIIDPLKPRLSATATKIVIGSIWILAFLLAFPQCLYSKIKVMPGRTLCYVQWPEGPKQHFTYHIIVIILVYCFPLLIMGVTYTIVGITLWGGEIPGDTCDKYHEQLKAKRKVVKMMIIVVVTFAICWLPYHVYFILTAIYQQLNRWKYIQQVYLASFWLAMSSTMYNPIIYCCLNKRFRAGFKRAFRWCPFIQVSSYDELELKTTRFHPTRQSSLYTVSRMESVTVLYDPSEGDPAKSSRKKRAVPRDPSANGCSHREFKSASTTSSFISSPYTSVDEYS
The following applies: read-out: Binding (Inhibition of [125I]-[MePhe7]neurokinin B) Murine NK3 receptor, Ki; HEK 293-murine NK3 receptor cells; mean ± SEM; cited from earlier work.

Experiment [3] addresses T3, Murine NK3 receptor. The following applies: HEK 293-murine NK3 receptor cells; mean ± SEM; read-out: Ca2+ Mobilization Murine NK3 receptor, EC50; cited from earlier work.
The target in experiment [4] is T1, NK-3 receptor. The following applies: cited from earlier work. This is another data set of the same source.
Experiment [5] has as its target T1, NK-3 receptor. More on the design: expressed in transfected cells; host or cells: HEK 293. The following applies: read-out: Binding (Inhibition of [125I]-[MePhe7]neurokinin B) Human NK3 receptor, HEK 293-human NK3 receptor cells, mean ± SEM; cited from earlier work.
The target of experiment [6] is T1, NK-3 receptor. More on the design: expressed in transfected cells; host or cells: HEK 293. The following applies: HEK 293-human NK3 receptor cells, mean ± SEM, read-out: Ca2+ Mobilization Human NK3 receptor; cited from earlier work.
Experiment [7] deals with left atrium of Langendorff-perfused rabbit heart. Description: Left atrial effective refractory period in Langendorff-perfused rabbit hearts. The procedure:
After the heart was excised, it was cannulated, quickly mounted on a Langendorff perfusion set-up, and perfused at 37° C. with a solution containing (in mmol/L) 128 NaCl, 4.7 KCl, 1.45 CaCl2), 0.6 MgCl2, 27 NaHCO3, 0.4 NaH2PO4, and 11 glucose (pH maintained at 7.4 by equilibration with a mixture of 95% 02 and 5% CO2). The left atrium (ventricle) was stimulated at a basic cycle length of 200 ms, and twice the diastolic stimulus current threshold. […] The effective refractory period was defined as the longest S1-S2 interval failing to produce atrial (ventricular) activation.

In experiment [8] the test system is rabbit ventricular myocytes. Put plainly: Action potential recording (perforated patch clamp) in rabbit ventricular myocytes. The following applies: 2 Hz, 1-10 μM substance P or 100 nM Senktide.
Procedure: (§1) Male New Zealand White specified pathogen free rabbits (2.5-3.5 kg) were anaesthetized with a combination of 20 mg xylazine and 100 mg ketamine (intramuscularly) and heparinized with a bolus of 1000 IU heparin (intravenously). Subsequently, the animals were killed by 200 mg pentobarbital intravenously, after which the heart was quickly excised and mounted on a langendorff perfusion apparatus. […] Single atrial cells were isolated from the left atrium using the same protocol with a modification consisting of complementing the enzymatic solution with 6.6 pg/mL protease.
(§2) Small aliquots of single cell suspension were introduced into a recording chamber on the stage of an inverted microscope. Cells were allowed to adhere for 5 minutes after which superfusion was started. Single quiescent rod-shaped myocytes with clear cross-striations and smooth surfaces were selected for measurements.
(§3) Voltage control, data acquisition, and analysis were performed using custom-made software.
(§4) Potentials were corrected for liquid junction potential [3]. Signals were low-pass filtered (cut-off frequency: 5 kHz) and digitized at 40 kHz. Cell membrane capacitance (Cm) was estimated by dividing the decay time constant of the capacitive transient in response to 5 mV hyperpolarizing voltage clamp steps from a holding potential of −40 mV, by the series resistance.
(§5) APs were measured with the amphotericin-B-perforated patch clamp technique using normal Tyrode's solution containing (in mM): NaCl 140, KCl 5.4, CaCl2 1.8, MgCl2 1.0, glucose 5.5, HEPES 5.0, pH 7.4 (NaOH). The patch-pipettes (borosilicate glass; 1-3 MΩ) were filled with a ‘standard’ solution containing (in mM): K-gluconate 110, KCl 30, NaCl 5, MgCl2 1, amphotericin-B 0.22, HEPES 10, pH 7.3 (KOH).
(§6) APs were elicited at 2 Hz by 2-ms (1.5×diastolic stimulation threshold) current pulses applied through the patch pipette. […] Values obtained from 10 consecutive APs were averaged.
(§7) The NK-agonists were applied in a cumulative sequence with 5 minutes intervals between increments in concentration. Effects were assessed after equilibration, but not earlier than 3 minutes after application.

“Also recorded” adds a separate entry of the source. Where a SMILES comes first, the peptide text is derived from it.

Sequence of NK-1 receptor (P25103 whole entry, species assumed): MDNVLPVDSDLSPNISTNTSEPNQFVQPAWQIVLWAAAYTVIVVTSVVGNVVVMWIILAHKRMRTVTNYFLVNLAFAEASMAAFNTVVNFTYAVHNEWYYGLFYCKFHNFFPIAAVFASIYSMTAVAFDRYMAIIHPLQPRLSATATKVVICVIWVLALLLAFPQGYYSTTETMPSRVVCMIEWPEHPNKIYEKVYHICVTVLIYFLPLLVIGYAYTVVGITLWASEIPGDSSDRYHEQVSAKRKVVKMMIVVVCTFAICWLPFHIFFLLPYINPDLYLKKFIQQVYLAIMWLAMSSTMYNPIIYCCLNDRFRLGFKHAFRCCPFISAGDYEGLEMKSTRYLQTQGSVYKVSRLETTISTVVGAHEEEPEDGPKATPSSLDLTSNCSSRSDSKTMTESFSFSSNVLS
Procedure for rabbit atrial myocytes: as §1, §2, §3, §4, §5, §6, §7

Regarding [Sar9, Met (O2)11]-Substance P, the “Effect on atrial action potential (AP) duration” value in the experiment on rabbit atrial myocytes was “absence of effect; also recorded: does not affect AP duration”.
`CC[C@H](C)[C@H](NC(=O)[C@H](Cc1ccccc1)NC(=O)[C@H](C)NC(=O)[C@H](CC(=O)O)NC(=O)[C@H](CCCCN)NC(=O)[C@H](CO)NC(=O)[C@@H]1CCCN1C(=O)[C@@H]1CCC(=O)N1)C(=O)NCC(=O)N[C@@H](CC(C)C)C(=O)N[C@@H](CCSC)C(N)=O` [Eledoisin] (HELM PEPTIDE1{[Glp].P.S.K.D.A.F.I.G.L.M.[am]}$$$$V2.0): at NK-1 receptor, the “NK-1 receptor Affinity (pIC50)” value is on record as 8.6 pIC50. Besides, the “NK-3 receptor Affinity (pIC50)” value at NK-3 receptor [1] is 6.2-6.6 pIC50.
In the case of “Neurokinin B: natural NK3-receptor agonist, CAS registry No. 86933-75-7”, the “NK2-receptor Affinity (pK1)” value with NK2-receptor is reported as 5.0-7.7 pK1. For the same compound, in the experiment with Murine NK3 receptor [2], the Ki was 2.3 ± 0.3 nM. Also, the EC50 with Murine NK3 receptor [3] is 0.09 ± 0.02 nM.
With RSRTRQFYGLM [Hemokinin-1], at NK-1 receptor, the “NK-1 receptor Affinity (pK1)” value was 9.8-11.7 pK1. Further, the “NK-3 receptor Affinity (pK1)” value on NK-3 receptor [1] is 8.6-9.3 pK1. For the same compound, the “NK2-receptor Affinity (pK1)” value on NK2-receptor is reported as 6.3 pK1.
`CSCC[C@H](NC(=O)[C@H](CC(C)C)NC(=O)CNC(=O)[C@@H](NC(=O)[C@H](Cc1ccccc1)NC(=O)[C@H](CCC(N)=O)NC(=O)[C@H](CC(=O)O)NC(=O)[C@H](CO)NC(=O)[C@H](CCCCN)NC(=O)[C@@H]1CCCN1C(=O)[C@@H](NC(=O)[C@@H](N)CC(=O)O)C(C)C)C(C)C)C(N)=O` [Kassinin] (H-DVPKSDQFVGLM-NH2): the “NK-1 receptor Affinity (pIC50)” value on NK-1 receptor was 6.6-7.1 pIC50. In addition, the “NK-3 receptor Affinity (pIC50)” value on NK-3 receptor [1] is given as 6.7-7.0 pIC50.
For “Neurokinin A: compound having CAS registry No. 86933-74-6”, the “NK-3 receptor Affinity (pEC50)” value with NK-3 receptor [4] was 7.4 pEC50. The figures for the Ki with NK-3 receptor [5] and with Murine NK3 receptor [2] were 3300 ± 240 nM and 785 ± 195 nM, respectively. The “NK-3 receptor Affinity (pK1)” value with NK-3 receptor [1] is 5.5-6.3 pK1. The figures for the EC50 with NK-3 receptor [6] and with Murine NK3 receptor [3] were 22 ± 4 nM and 0.82 ± 0.24 nM, respectively.
Turning to “Asp-Met-His-Asp-Phe-Phe-(Me)Phe-Gly-Leu-Met-NH2 (DMHDFFFGLM; HELM PEPTIDE1{D.M.H.D.F.F.[meF].G.L.M.[am]}$$$$V2.0; N-terminus assumed; SMILES CSCC[C@H](NC(=O)[C@H](CC(C)C)NC(=O)CNC(=O)[C@H](Cc1ccccc1)N(C)C(=O)[C@H](Cc1ccccc1)NC(=O)[C@H](Cc1ccccc1)NC(=O)[C@H](CC(=O)O)NC(=O)[C@H](Cc1c[nH]cn1)NC(=O)[C@H](CCSC)NC(=O)[C@@H](N)CC(=O)O)C(N)=O; listed as Homo sapiens) [[MePhe^7]neurokinin B]”, in experiment [7] (20 nM (N-Me-Phe7)-NKB, basic cycle length 200 ms, control 75 ms), the “Longest S1-S2 interval that fails to produce atrial activation (A-ERP)” value is recorded as 105 ms. Also, the “Effect on atrial effective refractory period, in words” value in experiment [7] (Langendorff-perfused rabbit heart) was “prolongs the atrial effective refractory period”. The “Prolongation of the S1-S2 interval measured in the left atrium” value in [7] (Langendorff-perfused rabbit heart, difference to control) was 30 ms. Also, in the experiment with NK-3 receptor [4], the “NK-3 receptor Affinity (pEC50)” value is 8.9 pEC50. Also, the Ki with NK-3 receptor [5] was 1.8 ± 1 nM; with Murine NK3 receptor [2] it was 0.6 ± 0.1 nM. Moreover, in the experiment with NK-3 receptor [1], the “NK-3 receptor Affinity (pK1)” value is given as 8.7-9.6 pK1. The results for the EC50 with NK-3 receptor [6] and in the experiment with Murine NK3 receptor [3] were 0.3 ± 0.1 nM and 0.26 ± 0.13 nM, respectively.
For the compound “Substance P: agonist of multiple neurokinin receptors, CAS registry No. 33507-63-0”, the “Effect on ventricular action potential (AP) duration” value in experiment [8] is given as “does not prolong the AP”; in experiment [8] (listed as substance P) it was “absence of effect”. Further, in the experiment with rabbit atrial myocytes, the “Effect on atrial action potential (AP) duration” value is given as “significantly prolongs the AP duration”. Also, in the experiment with Murine NK3 receptor [2], the Ki is 4920 ± 2250 nM. The EC50 in the experiment with Murine NK3 receptor [3] was 5.4 ± 2.4 nM.
